From publication PMC9561379 come the findings set out here.

For assay [1], the target named is asymmetric nucleosome MB/WT (MB-modified H2A/H2B S112C dimer in the upstream position, WT dimer downstream) (Xenopus) (UniProt P06897). The assay is described as follows: native gel or EMSA; asymmetrically modified nucleosomes on Cy5-labelled DNA incubated with or without streptavidin, 5% acrylamide nucleoprotein gels, imaged by fluorography. A general note: In EMSA bound probe runs differently from free probe, usually more slowly.

Assay [2] addresses asymmetric nucleosome WT/MB (WT dimer in the upstream position, MB-modified H2A/H2B S112C dimer downstream) (Xenopus) (UniProt P06897). The assay is described as above.
The target of assay [3] is H2A G2C-MB nucleosome (100% MB-modified H2A G2C, both H2A N-tails biotinylated) (Xenopus). The assay is described as follows: native gel or EMSA; biotin-modified or unmodified nucleosomes (radiolabelled 601 DNA) incubated with streptavidin in TE buffer for 10 min at room temperature, run on 6% native PAGE (legend of Figure 2B: 5%); mobility shift.
Assay [4] has as its target H2B S112C-MB nucleosome (MB-modified H2B S112C) (Xenopus).
The target in assay [5] is asymmetric nucleosome MB/WT (MB-modified H2A/H2B S112C dimer in the upstream position, WT dimer downstream) (Xenopus) (UniProt P06897).
The target of assay [6] is asymmetric nucleosome WT/MB (WT dimer in the upstream position, MB-modified H2A/H2B S112C dimer downstream) (Xenopus) (UniProt P06897).

streptavidin, sequence (P22629 25-183): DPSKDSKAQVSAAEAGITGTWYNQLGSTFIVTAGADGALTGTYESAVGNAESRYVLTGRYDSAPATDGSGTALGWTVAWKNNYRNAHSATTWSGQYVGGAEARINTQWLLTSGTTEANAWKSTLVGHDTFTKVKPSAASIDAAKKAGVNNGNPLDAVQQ

Take “streptavidin (from UniProt P22629 25-183) (natural protein)”: the stoichiometry N (streptavidin per nucleosome) in assay [1], in assay [2] and in assay [3] was 1 each time.
As for “RSC (Remodels the Structure of Chromatin) complex, yeast (from UniProt P32597 1-1359; Q06168 1-426; Q06488 1-889; Q02206 1-625; Q07979 1-502; Q12406 1-477; Q05123 1-467)”, in assay [4], the rate of HhaI digestion during RSC remodeling, nucleosomes with one streptavidin bound (1SA) against unbound nucleosomes is 2 fold slower and the rate of HhaI digestion during RSC remodeling, nucleosomes with two streptavidins bound (2SA) against the unbound control was determined as 20 fold slower. Moreover, the fraction of RSC-mobilized, streptavidin-bound nucleosomes protected from Hind III digestion at the downstream end (about 40% without streptavidin) in assay [5] is 80%. The same substance had a fraction of RSC-mobilized, streptavidin-bound nucleosomes protected from Hind III digestion at the downstream end (about 40% without streptavidin) in assay [6] of 20%.
